One assay has as its target T1, Human Tau2N4R.
T1 construct: target in SPR of the literature rows
Put plainly: SPR; literature table, Jadhav et al. 2019; AVIDITY 'nd.'. (In general: In SPR one partner is held on a chip, and binding of the other changes the refractive index at the surface.)

In assay [1] the target is T2, recombinant human mis-disordered tau protein (tau151-391/4R) (human, UniProt P10636 468-708).
T2 construct: No tags are stated; also called pathological tau
Put plainly: SPR, target 'Pathological Tau151-391_4R'; literature table, Jadhav et al. 2019; AVIDITY 'nd.'.

T1 sequence (single chain, as listed by the source limits assumed): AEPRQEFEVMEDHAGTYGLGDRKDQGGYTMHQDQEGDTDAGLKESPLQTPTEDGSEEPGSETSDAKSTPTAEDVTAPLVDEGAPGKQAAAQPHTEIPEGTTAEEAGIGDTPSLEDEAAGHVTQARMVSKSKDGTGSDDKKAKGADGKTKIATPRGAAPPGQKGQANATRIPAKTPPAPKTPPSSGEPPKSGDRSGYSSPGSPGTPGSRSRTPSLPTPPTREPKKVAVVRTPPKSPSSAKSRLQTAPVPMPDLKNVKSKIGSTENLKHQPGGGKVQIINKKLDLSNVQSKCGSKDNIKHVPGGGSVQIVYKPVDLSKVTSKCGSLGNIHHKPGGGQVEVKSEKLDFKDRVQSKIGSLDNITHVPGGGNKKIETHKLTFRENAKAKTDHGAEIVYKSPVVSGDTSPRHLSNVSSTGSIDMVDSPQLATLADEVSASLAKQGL
T2 sequence (P10636 468-708): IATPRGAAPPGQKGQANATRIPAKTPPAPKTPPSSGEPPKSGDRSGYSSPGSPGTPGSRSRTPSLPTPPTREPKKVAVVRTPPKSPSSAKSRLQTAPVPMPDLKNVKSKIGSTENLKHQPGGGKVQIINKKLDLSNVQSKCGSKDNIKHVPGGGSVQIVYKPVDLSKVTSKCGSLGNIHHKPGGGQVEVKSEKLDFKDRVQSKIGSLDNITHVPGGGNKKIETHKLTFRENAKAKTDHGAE

B1: DC8E8 (antibody, V domains shown)
VH: QVQLQQSGPELVKPGTSVKMPCKASGYIFTDYVISWVKQRTGQGLEWIGEIFPRSGSTYYNEKFKGKATLTADKSSNTAYMQLSSVTSEDSAVYFCARDYYGTSFAMDYWGQGTSVTVSS
VL: DIVMSQSPSSLAVSAGEKVTMSCKSSQSLLNSRTRKNYLAWYQQKPGQSPKLLIYWASTRESGVPDRFTGSGSGTDFTLTISSVQAEDLAVYYCKQSFYLRTFGGGTKLDIK
Turning to B1, the Kd came to 91 nM with Human Tau2N4R and 14 nM in assay [1].

The values are drawn from patent US20220402979A1 (AXON NEUROSCIENCE, published 2022).
